Assay in all cases: Quantitative phosphorylation assay of T33-Sic1ΔC constructs and recombinant substrates
Holding throughout (type): biochemical
Common to all, as to conditions: Table S2; purified protein substrate; relative values, not divided by [S]

One data set deals with T1, Clb5-Cdk1 (Saccharomyces cerevisiae, UniProt P00546+P30283).
T1 construct: We purified the four cyclin-Cdk1 complexes from yeast; made in house; host or cells: S. cerevisiae strain DOM0076 (gal-CLB5-TAP, sic1 deleted); Cks1 from bacteria
T1 sequence (P00546 2-298 limits assumed): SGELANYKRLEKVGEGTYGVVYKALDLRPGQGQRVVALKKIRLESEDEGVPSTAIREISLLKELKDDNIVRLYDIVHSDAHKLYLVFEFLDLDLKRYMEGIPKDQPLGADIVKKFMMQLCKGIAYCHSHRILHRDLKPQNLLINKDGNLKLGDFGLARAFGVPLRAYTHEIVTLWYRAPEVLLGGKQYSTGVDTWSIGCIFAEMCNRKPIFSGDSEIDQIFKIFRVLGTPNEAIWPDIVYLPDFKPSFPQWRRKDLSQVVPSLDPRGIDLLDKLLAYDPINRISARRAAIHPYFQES
T1 sequence (P30283 whole entry partner): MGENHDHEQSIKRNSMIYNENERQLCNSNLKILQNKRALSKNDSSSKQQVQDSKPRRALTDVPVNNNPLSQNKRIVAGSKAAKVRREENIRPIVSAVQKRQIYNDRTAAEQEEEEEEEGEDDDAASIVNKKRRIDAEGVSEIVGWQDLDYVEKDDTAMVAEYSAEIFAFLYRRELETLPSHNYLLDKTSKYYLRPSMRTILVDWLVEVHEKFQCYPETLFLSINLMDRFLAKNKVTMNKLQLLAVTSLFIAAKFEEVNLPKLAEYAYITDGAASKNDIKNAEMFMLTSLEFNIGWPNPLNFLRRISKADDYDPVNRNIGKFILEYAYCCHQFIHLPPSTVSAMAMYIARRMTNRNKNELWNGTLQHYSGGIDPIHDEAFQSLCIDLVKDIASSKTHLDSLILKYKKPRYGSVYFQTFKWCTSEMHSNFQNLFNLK
T1 sequence (P20486 whole entry partner): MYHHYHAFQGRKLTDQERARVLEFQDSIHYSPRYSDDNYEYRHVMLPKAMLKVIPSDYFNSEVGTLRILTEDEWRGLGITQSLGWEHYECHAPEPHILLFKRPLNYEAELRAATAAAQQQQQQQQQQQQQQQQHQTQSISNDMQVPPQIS

Another data set has as its target T2, Clb3-Cdk1 (Saccharomyces cerevisiae, UniProt P00546+P24870).
T2 construct: We purified the four cyclin-Cdk1 complexes from yeast; made in house; host or cells: S. cerevisiae strain DOM0957 (gal-CLB3-TAP, sic1 deleted); Cks1 from bacteria

For a further data set, the target named is T3, Cln2-Cdk1 (Saccharomyces cerevisiae, UniProt P00546+P20438).
T3 construct: We purified the four cyclin-Cdk1 complexes from yeast; made in house; host or cells: S. cerevisiae strain DMY305 (galactose-induced); Cks1 from bacteria
T3 sequence (P00546 2-298 limits assumed): as the sequence (P00546 2-298 limits assumed) above
T3 sequence (P20438 whole entry partner): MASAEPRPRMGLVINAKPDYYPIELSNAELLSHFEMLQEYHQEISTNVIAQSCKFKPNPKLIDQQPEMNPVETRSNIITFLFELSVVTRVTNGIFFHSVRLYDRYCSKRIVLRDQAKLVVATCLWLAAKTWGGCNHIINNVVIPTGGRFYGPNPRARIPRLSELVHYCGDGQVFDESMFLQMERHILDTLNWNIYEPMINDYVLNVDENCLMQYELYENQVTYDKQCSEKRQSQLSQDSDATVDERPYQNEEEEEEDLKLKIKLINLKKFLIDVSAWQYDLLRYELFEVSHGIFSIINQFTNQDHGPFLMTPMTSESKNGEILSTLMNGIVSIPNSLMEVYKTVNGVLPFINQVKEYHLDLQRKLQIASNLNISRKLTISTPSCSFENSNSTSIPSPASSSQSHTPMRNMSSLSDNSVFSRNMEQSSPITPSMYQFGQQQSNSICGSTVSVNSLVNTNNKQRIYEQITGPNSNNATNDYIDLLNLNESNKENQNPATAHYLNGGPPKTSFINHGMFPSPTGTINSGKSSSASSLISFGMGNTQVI
T3 sequence (P20486 whole entry partner): as the sequence (P20486 whole entry partner) above

In another data set the target is T4, Clb2-Cdk1 (Saccharomyces cerevisiae, UniProt P00546+P24869).
T4 construct: We purified the four cyclin-Cdk1 complexes from yeast; made in house; host or cells: S. cerevisiae strain DOM0077 (gal-CLB2-TAP, sic1 deleted); Cks1 from bacteria
T4 sequence (P00546 2-298 limits assumed): as the sequence (P00546 2-298 limits assumed) above
T4 sequence (P24869 2-491 partner limits assumed): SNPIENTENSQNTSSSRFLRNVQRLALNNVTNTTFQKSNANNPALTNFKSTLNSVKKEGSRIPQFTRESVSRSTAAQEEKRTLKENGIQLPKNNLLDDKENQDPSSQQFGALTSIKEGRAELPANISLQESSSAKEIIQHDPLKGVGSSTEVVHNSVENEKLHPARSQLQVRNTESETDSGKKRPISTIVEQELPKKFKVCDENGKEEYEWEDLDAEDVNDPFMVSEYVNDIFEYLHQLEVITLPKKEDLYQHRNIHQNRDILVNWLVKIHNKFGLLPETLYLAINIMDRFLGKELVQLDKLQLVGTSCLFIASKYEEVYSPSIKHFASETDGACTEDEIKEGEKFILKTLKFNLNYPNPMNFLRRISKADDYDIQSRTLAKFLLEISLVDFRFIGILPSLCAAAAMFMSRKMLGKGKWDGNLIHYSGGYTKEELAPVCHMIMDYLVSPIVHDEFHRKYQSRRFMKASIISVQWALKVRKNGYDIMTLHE
T4 sequence (P20486 whole entry partner): as the sequence (P20486 whole entry partner) above

Another data set has as its target T5, Clb5hpm-Cdk1 (Saccharomyces cerevisiae, UniProt P00546).
T5 construct: made in house; host or cells: S. cerevisiae strain DOM0963 (gal-CLB5hpm-TAP, sic1 deleted); Cks1 from bacteria
On the procedure:
(§1) For the quantitative phosphorylation assays of T33-Sic1ΔC constructs and recombinant substrates, substrate concentrations were kept in the range of 0.5–2 μM (in the linear [S] versus v0 range, several-fold below the estimated KM value), and initial velocity conditions were defined as an initial substrate turnover of up to 10% of the total turnover. For the steady-state peptide kinetics of the Histone peptide PKTPKKAKKL, a similar assay composition was used as for protein substrates, and phosphocellulose paper was used for the quantification of the phosphorylated substrate.
(§2) Supplemental Experimental Procedures
(§3) Plasmid constructs and yeast strains
(§4) For tandem affinity purification (TAP) of cyclin-Cdk1 complexes, the cyclin genes were cloned into the 2 micron vector pRSAB1234 containing a GAL1 promoter and the C-terminal TAP-tag. To purify different 6His-T33-Sic1ΔC forms for kinase assays, the C-terminally truncated fragment of Sic1 (with a stop codon inserted after amino acid 215) was cloned into the NheI/BamHI site of the bacterial expression vector pET28a (Invitrogen). Mutagenesis of cyclins or substrates was performed using single-stranded pRSAB1234 or pET28a vector constructs as templates. The triple mutants in the hydrophobic patch (hpm) of Clb5 and Clb2 were described previously (Loog and Morgan, 2005), and the hpm of Clb3 (Phe-201, Leu-205 and Trp-208 mutated to alanines) was designed according to sequence homology with other B-type cyclins. In T33-Sic1ΔC constructs, the other Cdk sites bearing the consensus motif S/T-P were mutated to Ala-Ala in order to prevent any possible (pseudo)substrate competition. The other Cdk substrates were cloned as full-length forms into bacterial expression vectors pET28a or pGEX-4T-1. Cdh1 was purified using the baculovirus system and was a kind gift from Monica Rodrigo-Brenni (UCSF). […]
The […]
(§5) pRSAB1234 analogously to the cyclin-Cdk1 complexes. For C-terminal tagging of cyclin genes in their chromosomal loci, the Pringle method was applied (Longtine et al., 1998). Lists of plasmid […]
(§6) The TAP method was applied for purification of cyclin-Cdk1 complexes and Swe1 as described previously for Clb5-TAP-Cdk1 and Clb2-TAP-Cdk1 (Puig et al., 2001; Ubersax et al., 2003). […]
(§7) tagged recombinant T33-Sic1ΔC constructs and substrates were cloned into the pET28a vector and purified by standard cobalt affinity chromatography and elution with 200 mM imidazole. 6His-Fin1 was purified as described previously (Woodbury and Morgan, 2007). Substrates cloned into the pGEX-4T-1 were purified on glutathione agarose columns using 5 mM reduced glutathione for elution. Cks1 was purified as described previously (Reynard et al., 2000). The optimal working concentration for purified Cks1 was taken as 500 nM based on optimization performed for cyclin-Cdk1 preparations and T33-Sic1ΔC as a substrate.
(§8) For the quantitative phosphorylation assays of T33-Sic1ΔC constructs and recombinant substrates, substrate concentrations were kept in the range of 0.5-2 μM (in the linear [S] vs v0 range, several-fold below the estimated KM value), and the initial velocity conditions were defined as an initial substrate turnover ranging up to 10% of the total turnover. The latter was estimated by a long-term incubation with excess amounts of cyclin-Cdk1 and 32P-γ-ATP in the standard reaction mixture given below. About 1-10 nM of purified kinase complex was used, reaction aliquots were taken at two or more time points, and the reaction was stopped by SDS-PAGE sample buffer. The relative kcat/KM values for the substrates were calculated as the ratio of v0/[S], which was determined from at least two independent experiments. The basal composition of the assay mixture contained 50 mM Hepes, pH 7.4, 100 mM NaCl, 0.1% NP-40, 20 mM imidazole, 0.1 mg/ml 2HA peptide, 2% glycerol, 2 mM EGTA, 0.2 mg/ml BSA, […], and 500 μM ATP (with added 32P-γ-ATP (Perkin Elmer)).
(§9) About 1-10 nM of purified kinase complex was used, reaction aliquots were taken at two or more […]

Another data set addresses T6, Clb3hpm-Cdk1 (Saccharomyces cerevisiae, UniProt P00546+P24870).
T6 construct: made in house; host or cells: S. cerevisiae strain MK0168 (gal-CLB3hpm-TAP, sic1 deleted); Cks1 from bacteria
On the procedure:
as §1, §2, §3, §4
The […]
as §5, §6, §7, §8, §9

A further data set addresses T7, Clb2hpm-Cdk1 (Saccharomyces cerevisiae, UniProt P00546).
T7 construct: made in house; host or cells: S. cerevisiae strain DOM0964 (gal-CLB2hpm-TAP, sic1 deleted); Cks1 from bacteria
The protocol: as §1, §2, §3, §4
The […]
as §5, §6, §7, §8, §9

T2 sequence (P00546 2-298 limits assumed): as the sequence (P00546 2-298 limits assumed) above
T2 sequence (P24870 whole entry partner): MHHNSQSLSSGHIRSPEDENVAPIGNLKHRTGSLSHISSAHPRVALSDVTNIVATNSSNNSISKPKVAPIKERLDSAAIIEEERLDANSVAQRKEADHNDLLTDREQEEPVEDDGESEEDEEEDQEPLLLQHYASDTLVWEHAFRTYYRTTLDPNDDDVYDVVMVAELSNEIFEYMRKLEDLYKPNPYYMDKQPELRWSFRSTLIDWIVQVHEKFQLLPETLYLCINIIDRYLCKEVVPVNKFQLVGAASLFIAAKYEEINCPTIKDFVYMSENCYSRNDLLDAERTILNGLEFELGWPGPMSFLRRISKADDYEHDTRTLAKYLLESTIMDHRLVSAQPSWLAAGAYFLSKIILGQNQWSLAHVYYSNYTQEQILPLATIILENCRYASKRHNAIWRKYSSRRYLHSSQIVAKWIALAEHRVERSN
T2 sequence (P20486 whole entry partner): as the sequence (P20486 whole entry partner) above
T5 sequence (P00546 2-298 limits assumed): as the sequence (P00546 2-298 limits assumed) above
T7 sequence (P00546 2-298 limits assumed): as above

B1: PXL1: purified yeast protein tested as Cdk1 substrate (protein, UniProt P36166 1-706, looked up)
Paxillin-like protein 1: MYNSIYGSPFPKINPKVRYKTALERAGFDTKPRNPFSSQRNASTGSLQASVKSPPITRQRNVSAAPSVPVTMKSAYTASSKSAYSSVKGESDIYPPPVLENSERRSVTPPKNSNFTSSRPSDISRSISRPSERASQEDPFRFERDLDRQAEQYAASRHTCKSPANKEFQAADNFPFNFEQEDAGNTEREQDLSPIERSFMMLTQNDTASVVNSMNQTDNRGVLDQKLGKEQQKEESSIEYESEGQQEDENDIESLNFEPDPKLQMNLENEPLQDDFPEAKQEEKNTEPKIPEINVTRESNTPSLTMNALDSKIYPDDNFSGLESSKEQKSPGVSSSSTKVEDLSLDGLNEKRLSITSSENVETPYTATNLQVEQLIAQLDDVSLSRNAKLDMNGNCLNAVDRKASRFKKSSAYLSGYPSMDIPVTQQTSIVQNSNTNLSRQTILVDKGDVDEDAPSESTTNGGTPIFYKFKQSNVEYSNNEGMGSQETFRTKLPTIEALQLQHKRNITDLREEIDNSKSNDSHVLPNGGTTRYSSDADYKETEPIEFKYPPGEGPCRACGLEVTGKRMFSKKENELSGQWHRECFKCIECGIKFNKHVPCYILGDEPYCQKHYHEENHSICKVCSNFIEGECLENDKVERFHVDCLNCFLCKTAITNDYYIFNGEIPLCGNHDMEALLKEGIDNATSSNDKNNTLSKRRTRLINFN
In the case of B1, the “kcat/KM, Clb5” value in the data set with Clb5-Cdk1 was 0.031 relative units. In the data set with Clb3-Cdk1, the “kcat/KM, Clb3” value is 0.139 relative units. Further, the “kcat/KM, Cln2” value with Cln2-Cdk1 is recorded as 0.031 relative units. Further, the “kcat/KM, Clb2” value with Clb2-Cdk1 was 0.571 relative units. Besides, in the data set with Clb5hpm-Cdk1, the “kcat/KM, Clb5hpm” value was determined as 0.015 relative units. The “kcat/KM, Clb3hpm” value with Clb3hpm-Cdk1 is recorded as 0.033 relative units. The “kcat/KM, Clb2hpm” value with Clb2hpm-Cdk1 is recorded as 0.244 relative units.

B2: SLI15: purified yeast protein tested as Cdk1 substrate (protein, UniProt P38283 1-698, looked up)
Inner centromere protein SLI15: MDWAIKAARKKTQRKPGSTRSIIETLDDLNNLTTDAHSEINQRLYESSEWLRNNVYMNTLKYEDKKMEESLISPENTHNKMDVEFPKMKGEYELSNSQNDAAKDVTKTPRNGLHNDKSITPKSLRRKEVTEGMNRFSIHDTNKSPVEPLNSVKVDANESEKSSPWSPYKVEKVLRESSKTSESPINTKRFDNQTWAAKEEMENEPILQALKKAESVKVKPPPNSGIARSQRRSNMFVPLPNKDPLIIQHIPPTKSSGSIPKVRTVKESPIAFKKKSTINSPAIRAVENSDTAGSTKASSVFDRLSSIPTKSFENKISRGNVGHKYSSSSIDLTGSPMKKVSQKFKSINSTDTDMQEALRDIFSVKNKITKNNSPKGKNSRKSSIPRFDKTSLKLTTHKKLAIIAEQKKKSKHSSDVHKTGSRPHSISPTKISVDSSSPSKEVKNYYQSPVRGYLRPTKASISPNKNKNLTTSQTPHRLKIKEKTLRKLSPNIADISKPESRKSKNYRLTNLQLLPPAEAERDDLKKKFDKRLSGIMRSQQEHHRRKQEKQKRMSHLEQDLKKQTSFSNDYKDIRLKESLAPFDNHVRDTINKNTAFSTDNILATINTVDHREIIGNVTPKIASVNDSLPEINTDSEDEASVTLAAWAKSPYLQEQLIRQQDINPQTIFGPIPPLHTDEIFPNPRLNRLKPRQIVPKRS
For the molecule B2, the “kcat/KM, Clb5” value with Clb5-Cdk1 was found to be 0.025 relative units. In addition, the “kcat/KM, Clb3” value in the data set with Clb3-Cdk1 is 0.141 relative units. Further, the “kcat/KM, Cln2” value with Cln2-Cdk1 is 0.422 relative units. In addition, in the data set with Clb2-Cdk1, the “kcat/KM, Clb2” value is 0.109 relative units. Also, the “kcat/KM, Clb5hpm” value in the data set with Clb5hpm-Cdk1 came to 0.004 relative units. Also, the “kcat/KM, Clb3hpm” value with Clb3hpm-Cdk1 came out at 0.032 relative units. Further, the “kcat/KM, Clb2hpm” value in the data set with Clb2hpm-Cdk1 is 0.060 relative units.

B3: PLM2: purified yeast protein tested as Cdk1 substrate (protein, UniProt Q04383 1-521, looked up)
Protein PLM2: MSHLFPPSSPVAGKPLESPQKEPGKLANTSVLTLGRKRYNYELEEYPTPDPSSSIGRQSSPVKDITSRLNETKSALSSPSKQEKVLAGPIEIELDASDPSRLAIGRKKSVCNIILPCRKNISRQHAFISYAADRNEIKLECNGTNGLSVHLPYSMQLHLVKPFPTRNFYKLVAEEPLTSQNTKQSHGKTLQKNQNFISFVLAKGETVTFPYIQGSFINFTGVTVCLSLKKVAPYPGDGNNNFDEENSTETEDELCLLTTTSDDFSWQKETPSMKFVPVEHSPRTEQISKPLLIASPALVKNSPISYRTTPQTSFVINQPSTPKKLKRKSISLKNNTIQETPLPKDKIIGTLSASTRSGGINEEESFAAVAKKTKELSSTTAIVSPAQKRLKTSLNIIPEISRSLSERGIRFDDLVHVLCNHLAFSNLQQTPLSQLQNINSNTSQLSKDELKKVLETISCIGIIVREGKDASGKPLEDEYYYDVENDDSDERKILYNSLKGRSRLRSCRKKHKQYFWKRPTK
For B3, the “kcat/KM, Clb5” value in the data set with Clb5-Cdk1 was 1.724 relative units. Besides, in the data set with Clb3-Cdk1, the “kcat/KM, Clb3” value is 9.051 relative units. In the data set with Cln2-Cdk1, the “kcat/KM, Cln2” value worked out at 0.428 relative units. Further, the “kcat/KM, Clb2” value with Clb2-Cdk1 was 9.072 relative units. Besides, the “kcat/KM, Clb5hpm” value in the data set with Clb5hpm-Cdk1 is listed as 0.428 relative units. Also, the “kcat/KM, Clb3hpm” value with Clb3hpm-Cdk1 came to 1.144 relative units. The “kcat/KM, Clb2hpm” value with Clb2hpm-Cdk1 amounted to 6.351 relative units.

B4: PDS1: GST-tagged purified yeast protein tested as Cdk1 substrate (protein, UniProt P40316 1-373, looked up)
Securin: MMPANEDKENNIVYTGNESSGINFPQTPAHLLKRSHSNILKPPVRLDQLKRDANSNNGNTLKYIQGGKEVSPTKRLHTHAQQQGRLPLAAKDNNRSKSFIFPETSNQSKDADLPQLQNTLSIRKNDQLRKLSQISRSRSRANHNDLLSNSRKLQKYGSVLGYNALPKMKSLVLKDLADSGKNEESSDDDEGNEDSESKLGKKLQSALLKQDSSDGENELNGGLGLFNEQGGLQQLIKNSTKNEQKTKNDKSDKTDDYDIEIAPQRQEPLPYVPEGYSPFQQDDIEKLKTFNSPYKLDLEDEDDTPDKVDLLPLEQIDEEGEKDETECITRNQEEGAALPLLSKNFKEVAAVPTMELVYSEEGLDPEELEDLVT
modifications: GST tag
notes: GST-tagged purified yeast protein tested as Cdk1 substrate
Regarding B4, in the data set with Clb5-Cdk1, the “kcat/KM, Clb5” value is 0.008 relative units. The “kcat/KM, Clb3” value with Clb3-Cdk1 stood at 0.015 relative units. The “kcat/KM, Cln2” value with Cln2-Cdk1 was 0.249 relative units. Also, in the data set with Clb2-Cdk1, the “kcat/KM, Clb2” value is given as 0.049 relative units. The “kcat/KM, Clb5hpm” value with Clb5hpm-Cdk1 is on record as 0.002 relative units. Also, in the data set with Clb3hpm-Cdk1, the “kcat/KM, Clb3hpm” value is on record as 0.005 relative units. Also, the “kcat/KM, Clb2hpm” value with Clb2hpm-Cdk1 is 0.035 relative units.

Values taken from publication PMC3115021, “Dynamics of Cdk1 Substrate Specificity during the Cell Cycle” (Molecular Cell, 2011).
